Consider one molecule from patent publication US8198236B2, “Methods and compositions for the treatment of cancer” (Washington University, priority 2007, dated 2012).

One assay concerns MMTV-Wnt1 tumors. Kind of assay: MMTV-Wnt1 tumor transplant growth in nude mice. Format: in vivo. As to conditions: i.p. every other day, first dose 15 mg/kg then 10 mg/kg, three weeks. As for the experimental part: Recombinant Mesd protein was prepared as described (Li Y, et al. (2005) J Cell Sci 118(22): 5305-5314). Mesd peptide, […] (SEQ ID NO: 14), was manufactured by Abgent (San Diego). Female athymic nude mice (Taconic) (6-8 weeks old) were used for passaging tumors from MMTV-Wnt1 mice (Taconic). MMTV-Wnt1 tumors were serially passaged in mice by implantation in the mammary fat pad as described (DeAlmeida V, et al. (2007) Cancer Res 67, 5371-5379). Therapeutic agents (200 μL Mesd protein, Mesd peptide or PBS) were administrated i.p. with a first dose of 15 mg/kg, followed by 10 mg/kg (9 more doses). Three groups of mice were treated every other day for three weeks and tumor volumes were measured thrice weekly.
The pharmacokinetics and bioavailability of Mesd and Mesd peptide ([…] (SEQ ID NO: 14)) were first investigated (FIG. 23). Cells from MMTV-Wnt1 tumors were injected into the mammary fat pads of female nude mice, and the resultant mice were subsequently randomly grouped when the mean tumor volume reached ca. 200 mm^3. […]
In these experiments, mice bearing established MMTV-Wnt1 tumor transplants were divided into three groups (five animals per group) and were i.p. injected with PBS (vehicle), Mesd, or Mesd peptide every other day. Tumor volume was analyzed using caliper measurement. […]

In another assay the test system is HCC1187 cells. Kind of assay: MTT assay of Wnt3a CM-stimulated growth of HCC1187 cells. Format: cell-based, human. The note with it: Mesd 1 μM, 24 h. The method, then: Cell growth and cell proliferation were measured by MTT assay (Promega) and BrdU incorporation using the BrdU ELISA kit (Roche Molecular Systems) according to the manufacturers' instructions. […] Breast cancer cells expressing control or LRP6 shRNA were seeded into 48-well plates. MTT-labeling reagent was added to each well 24 h later, and plates were incubated at 37° C. for 4 h. After the incubation period, the formazan crystals were dissolved in an MTT solubilization reagent and the resulting color was quantified spectrophotometrically. In some experiments, cell proliferation was measured by BrdU incorporation using the BrdU ELISA kit (Roche Molecular Systems) according to the manufacturer's instructions. Briefly, cancer cells expressing control or LRP6 shRNA were plated on 96-well plate. Cells were incubated with BrdU for 24 h, and the newly synthesized BrdU-DNA was then determined by colorimetry using an ELISA reader. All experiments were performed three times in triplicate.
In FIG. 20, * indicates p<0.05 compared to L cell CM; ** indicates p<0.01 compared to L cell CM.
(In general: Tetrazolium assays rely on reduction of a dye to a coloured formazan, in cell work by metabolically active cells.)

B1: Mesd: Recombinant full-length mouse Mesd expressed in E. coli, N-terminal polyhistidine tail, lacking the signal peptide (protein)
chain: ADTPGEATPPPRKKKDIRDYNDADMARLLEQWEKDDDIEEGDLPEHKRPSAPIDFSKLDPGKPESILKMTKKGKTLMMFVTVSGNPTEKETEEITSLWQGSLFNANYDVQRFIVGSDRAIFMLRDGSYAWEIKDFLVSQDRCAEVTLEGQMYPGKGGGSKEKNKTKPEKAKKKEGDRKPRASKEDNRAGSRREDL
modifications: left off: small tags and cut ends
notes: Recombinant full-length mouse Mesd expressed in E. coli, N-terminal polyhistidine tail, lacking the signal peptide
As for B1, in the assay with MMTV-Wnt1 tumors, the “Tumor growth (tumor volume, caliper)” value is listed as “significantly inhibit tumor growth”. In addition, in the assay on HCC1187 cells, the “Effect on Wnt3a CM-increased cell growth” value is “abolished”.
